Experimental data reported in the supplement of paper PMC10567573.

B1: SLC35F2 (parent)
chain: FVAFALCMFCLYSFMPLVIKVTSA

Variants of: B1
Experiment: protein stability index of a GFP-peptide fusion (GPS, HEK-293T) (PSI 1-6); higher = more stable
Conditions: c terminus: a fixed tail appended
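Also: lentivirally expressed fusions sorted by FACS into six bins by GFP to DsRed ratio, PSI derived from sequencing read proportions per bin multiplied by bin number.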

Protein stability index of substitutions, site by site:
V21: E 3.06; Q 1.85; M 3.27; H 2.9; Y 3.26; L 2.06; N 4.29; P 2.76; W 3.02; A 2.26; I 2.6
Y12: T 2.68; S 3.08; K 2.74; R 2.29; H 2.47; G 3.85; A 3.98; V 2.74; C 2.32; F 2.54; W 2.76; N 3.2; L 2.5; M 2.75; I 2.31; P 2.25; Q 3.48; E 3.32; D 1.79
L17: A 2.46; P 2.71; W 2.18; G 2.43; Y 3.6; H 2.77; V 3.13; E 2.38; D 2.8; N 1.58; I 2.03; R 2.36; F 2.35; K 4.14; C 1.91; T 2.34; M 3.65; Q 3.99
M15: G 2.42; Y 3.23; V 2.71; F 3.1; N 3.43; K 3.67; I 3.14; R 2.98; Q 3.41; S 2.61; D 3.13; E 2.25; P 4.92; L 3.33; W 2.1; H 2.97; C 3.39; T 2.83
A24: E 2.42; H 3.79; L 3.27; W 3.16; I 2.65; C 1.31; M 2.66; D 2.65; P 3.3; K 2.04; N 2.63; V 3.15; R 1.84; S 2.61; T 3.11
P16: V 1.69; Y 4.47; L 2.86; E 1.85; G 2.85; W 2.66; I 2.99; T 2.05; R 2.79; N 3.51; H 3.01; D 2.99; K 2.06; M 1.92; F 2.59; Q 2.65; A 3.6; S 3.48; C 3.1
S23: L 2.89; E 2.49; K 2; I 2.45; Y 2.03; T 2.71; W 2.54; C 2.9; D 2.85; A 2.39; F 3.51; G 3.19; P 2.96; Q 2.39; R 2.78
I19: C 2.7; V 3.21; E 2.87; M 2.48; F 2.69; T 3.51; G 3.04; P 2.86; W 4.11; Y 1.94; D 2.73; H 2.14; Q 3.62; K 3.47; L 3.06; S 2.42
T22: L 3.31; I 2.71; R 3.29; Q 3.07; W 2.77; P 3.35; F 2.36; G 2.96; C 2.54; H 3.96; E 3.47; V 3.01; S 2.33; A 2.77; N 3.68; Y 2.75; D 2.05
F14: W 3.16; A 2.78; N 2.27; P 2.46; G 3.38; V 3.79; S 3.81; L 3.56; T 2.91; M 2.52; H 3.63; Q 2.31; I 3.99; K 2.77; E 2.86; C 2.43; Y 2.41; D 3.53; R 3.4
